Measured values published in publication PMC7969032, “Tandem RNA binding sites induce self-association of the stress granule marker protein TIA-1”.

Key:
[1] = target: T1, TIA-1 full length (short isoform, p40) (human, UniProt P31483-2 1-375); experiment: co-sedimentation with condensed phase (PAGE); 4:1 TIA-1:TC site, 10 uM TIA-1; FA: 1 nM Fl-TC1; RRM23 in 10 mM HEPES pH 7.2, 50 mM NaCl, 1 mM DTT (legend: 20 mM HEPES); full-length TIA-1 in 20 mM sodium phosphate, 60 mM KCl, 0.5 M arginine-HCl, 1 mM MgCl2, 2 mM DTT, 0.5 mM EDTA, pH 7; Csat at room temperature; settings: protein: recombinant; tags: His-tag removed by TEV (untagged)
T1 sequence: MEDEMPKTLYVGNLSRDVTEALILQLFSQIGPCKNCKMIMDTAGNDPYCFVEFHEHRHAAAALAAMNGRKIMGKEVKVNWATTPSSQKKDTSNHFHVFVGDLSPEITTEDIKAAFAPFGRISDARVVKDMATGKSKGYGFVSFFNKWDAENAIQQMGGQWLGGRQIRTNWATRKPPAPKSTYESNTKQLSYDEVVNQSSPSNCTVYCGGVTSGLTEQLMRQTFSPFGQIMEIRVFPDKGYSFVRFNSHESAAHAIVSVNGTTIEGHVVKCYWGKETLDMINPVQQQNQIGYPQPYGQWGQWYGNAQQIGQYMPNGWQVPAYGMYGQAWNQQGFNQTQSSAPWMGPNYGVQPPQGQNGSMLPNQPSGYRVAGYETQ

[2] = target: T1, TIA-1 full length (short isoform, p40); experiment: SAXS; 500 mM arginine; SASDJL5; FA: 1 nM Fl-TC1; RRM23 in 10 mM HEPES pH 7.2, 50 mM NaCl, 1 mM DTT (legend: 20 mM HEPES); full-length TIA-1 in 20 mM sodium phosphate, 60 mM KCl, 0.5 M arginine-HCl, 1 mM MgCl2, 2 mM DTT, 0.5 mM EDTA, pH 7; Csat at room temperature; settings: protein: recombinant; tags: His-tag removed by TEV (untagged)
[3] = target: T1, TIA-1 full length (short isoform, p40); experiment: fluorescence anisotropy; 0.5 M arginine-HCl, 60 mM KCl, 1 mM MgCl2; KD not in text; FA: 1 nM Fl-TC1; RRM23 in 10 mM HEPES pH 7.2, 50 mM NaCl, 1 mM DTT (legend: 20 mM HEPES); full-length TIA-1 in 20 mM sodium phosphate, 60 mM KCl, 0.5 M arginine-HCl, 1 mM MgCl2, 2 mM DTT, 0.5 mM EDTA, pH 7; Csat at room temperature; settings: protein: recombinant; tags: His-tag removed by TEV (untagged); label: 5'-fluorescein
[4] = target: T1, TIA-1 full length (short isoform, p40); experiment: SAXS; 500 mM arginine; SASDJK5; FA: 1 nM Fl-TC1; RRM23 in 10 mM HEPES pH 7.2, 50 mM NaCl, 1 mM DTT (legend: 20 mM HEPES); full-length TIA-1 in 20 mM sodium phosphate, 60 mM KCl, 0.5 M arginine-HCl, 1 mM MgCl2, 2 mM DTT, 0.5 mM EDTA, pH 7; Csat at room temperature; settings: protein: recombinant; tags: His-tag removed by TEV (untagged)

Question: Does TTTTTACTCCAATTTTTACTCC (ssDNA) [TC2] bind [1]?
Answer: Result: binds

B1: TC9 (ssDNA)
DNA: TTTTTACTCCAATTTTTACTCCAATTTTTACTCCAATTTTTACTCCAATTTTTACTCCAATTTTTACTCCAATTTTTACTCCAATTTTTACTCCAATTTTTACTCC
Question: Does B1 bind [1]?
Answer: Result: binds

B2: TC7 (ssDNA)
DNA: TTTTTACTCCAATTTTTACTCCAATTTTTACTCCAATTTTTACTCCAATTTTTACTCCAATTTTTACTCCAATTTTTACTCC
Question: Does B2 bind [1]?
Answer: Result: binds

Question: Does UUUUUACUCC (ssRNA) [UC1] bind [2]?
Answer: Result: binds

Question: Does TTTTTACTCC (ssDNA) [TC1 (5'-fluorescein)] bind [3]?
Answer: Result: binds

Question: Does TTTTTACTCCAATTTTTACTCCAATTTTTACTCC (ssDNA) [TC3] bind [1]?
Answer: Result: binds

B3: TC5 (ssDNA)
DNA: TTTTTACTCCAATTTTTACTCCAATTTTTACTCCAATTTTTACTCCAATTTTTACTCC
Question: Does B3 bind [1]?
Answer: Result: binds

Question: Does TTTTTACTCC (ssDNA) [TC1] bind [4]?
Answer: Result: binds
